Experiment [1] deals with T1, biotinylated peptide 382-402 (corresponding to the mature EPOR) (human, biotinylated (site not stated)).
T1 construct: Range counted on mature human EPOR (aa406-426 of the precursor); also called EPOR peptide 382-402
T1 peptide: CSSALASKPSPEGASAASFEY
Nature of the experiment: Biacore 3000 SPR, 25 C, antibody on immobilized biotinylated peptide (avidity). On the procedure:
Measurements were made on a BIACORE™ 3000 at 25° C. in HBS-EP-Buffer, pH 7.4 (10 mM HEPES, 150 mM NaCl, 3.4 mM EDTA, 0.005% polysorbate 20 (w/v). 1.0 mg/ml CMD was added to reduce unspecific binding. Results are shown in Table 1.
On the technique in general: In SPR one partner is held on a chip, and binding of the other changes the refractive index at the surface.

In the next experiment the target is T2, human EPO receptor (human, UniProt P19235 25-508).
T2 construct: whole, on cells; In the Western blots the receptor stood in lysates of HeLa-EPOR (recombinant) and UT-7 cells; band of about 60 kDa; also called human erythropoietin receptor
T2 sequence (looked up): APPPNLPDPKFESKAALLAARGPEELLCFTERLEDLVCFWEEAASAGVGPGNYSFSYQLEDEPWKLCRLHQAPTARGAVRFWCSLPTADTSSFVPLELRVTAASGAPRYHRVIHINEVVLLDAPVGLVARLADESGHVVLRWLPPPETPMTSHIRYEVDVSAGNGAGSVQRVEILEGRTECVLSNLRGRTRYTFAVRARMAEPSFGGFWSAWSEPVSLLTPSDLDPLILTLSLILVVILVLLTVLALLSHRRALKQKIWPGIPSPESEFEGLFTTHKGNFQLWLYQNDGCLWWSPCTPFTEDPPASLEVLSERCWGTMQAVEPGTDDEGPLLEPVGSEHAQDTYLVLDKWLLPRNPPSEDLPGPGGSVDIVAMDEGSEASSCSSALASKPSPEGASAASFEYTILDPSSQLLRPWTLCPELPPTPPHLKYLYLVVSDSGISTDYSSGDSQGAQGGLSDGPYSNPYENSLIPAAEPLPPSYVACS
The experiment is described as follows: Western blot of lysates of HELAwt, HELA-EPOR and UT-7 cells. On the procedure: FIG. 2 WB analysis of lysates from HELAwt, HELA-EPOR and UT-7 cells (to show specificity). (a) Specific binding of Mab Cl. […] (b) Specific binding of Mab Cl.
The SDS-PAGE and western blotting were performed according to standard procedures and the NuPAGE® gel system of Invitrogen. The extracts corresponding to different number of cells were loaded in each line of a NuPAGE® Novex® 4-12% Bis-Tris gel. The proteins were then transferred onto PVDF membranes and incubated with the respective antibodies overnight at 4° C. After washing, the membranes were incubated with a conjugate anti-mouse or anti-rabbit IgG-POD and developed using ECL reagents (Lumi-Light^PLus western blotting substrate, Roche Diagnostics GmbH): Results are shown in FIG. 2.
(In general: Immunoblotting shows a protein as a band on a membrane.)

B1: Mab Cl. 19.1.2 (antibody, V domains shown)
VH: QVQLQQSGAELVRPGSSVKISCKASGYTFSRYWMNWVKQRPGQGLEWIGQIYPGDGDTNYIGDFKGKATLTADKSSSIAYMQLSSLTSEDSAVYFCARLMVPTYGLDYWGQGTSVTVSS
VL: DIVMSQSPSSLAVSAGEKVTMSCKSSQSLLNSRTRKNYLAWYQQKPGQSPKLLIYWASTRESGVPDRFTGSGSGTDFTLTIYSVQAEDLAVYYCKESYILPYTLGGGTKLEIK
notes: Mouse (Balb/c) monoclonal raised against peptide 382-402
For orientation: koff means the first-order rate constant of dissociation. As usually defined, the kon is a measure of how fast the partners come together. High values mean fast association, low ones slow association. On to B1, for which, in experiment [1], the Ka is 1.1e+09 M⁻¹, the Kd worked out at 1 nM, the koff worked out at 0.0021 s⁻¹ and the kon came to 1.9e+06 M⁻¹ s⁻¹. Moreover, the binding result with human EPO receptor is on record as “binds”.

B2: Mab Cl. 21.3.1 (antibody, V domains shown)
VH: AVQVVESGGDLVKPGGSLQLSCAASGFTFSSYAMSWARQTPEKRLEWVATISGRGTYTYYPDSVKGRFTISRDNAKNILYLQMSSLRSEDTAMYYCTPRLFAYWGQGTLVTVSA
VL: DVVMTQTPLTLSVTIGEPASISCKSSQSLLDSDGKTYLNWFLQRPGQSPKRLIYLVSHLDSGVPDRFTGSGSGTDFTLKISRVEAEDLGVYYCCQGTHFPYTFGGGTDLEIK
As for B2, the binding result with human EPO receptor is recorded as “binds”.

For the origin of these results see US20110165592A1 (HOFFMAN LA ROCHE, published 2011).
